For two substances, fold more plasminogen complexed with PAI-1 (rPAI-123-treated against saline-treated mice) and plasmin activity (chromozym assay); 50 nM PAI-1 pre-bound to plasminogen 1 h results are on record in patent US20130310305A1.

In experiment [1] the target is mouse plasminogen (endogenous, in descending aorta protein of LDLR-/- ApoB48-deficient mice) (mouse) (UniProt P20918). The experiment can be described thus: co-immunoprecipitation from pooled mouse descending aorta protein, densitometry of the western blot. For orientation: In western blotting, separated proteins are transferred to a membrane and probed.
Sequence of UniProt P20918 (P20918 20-812 limits assumed): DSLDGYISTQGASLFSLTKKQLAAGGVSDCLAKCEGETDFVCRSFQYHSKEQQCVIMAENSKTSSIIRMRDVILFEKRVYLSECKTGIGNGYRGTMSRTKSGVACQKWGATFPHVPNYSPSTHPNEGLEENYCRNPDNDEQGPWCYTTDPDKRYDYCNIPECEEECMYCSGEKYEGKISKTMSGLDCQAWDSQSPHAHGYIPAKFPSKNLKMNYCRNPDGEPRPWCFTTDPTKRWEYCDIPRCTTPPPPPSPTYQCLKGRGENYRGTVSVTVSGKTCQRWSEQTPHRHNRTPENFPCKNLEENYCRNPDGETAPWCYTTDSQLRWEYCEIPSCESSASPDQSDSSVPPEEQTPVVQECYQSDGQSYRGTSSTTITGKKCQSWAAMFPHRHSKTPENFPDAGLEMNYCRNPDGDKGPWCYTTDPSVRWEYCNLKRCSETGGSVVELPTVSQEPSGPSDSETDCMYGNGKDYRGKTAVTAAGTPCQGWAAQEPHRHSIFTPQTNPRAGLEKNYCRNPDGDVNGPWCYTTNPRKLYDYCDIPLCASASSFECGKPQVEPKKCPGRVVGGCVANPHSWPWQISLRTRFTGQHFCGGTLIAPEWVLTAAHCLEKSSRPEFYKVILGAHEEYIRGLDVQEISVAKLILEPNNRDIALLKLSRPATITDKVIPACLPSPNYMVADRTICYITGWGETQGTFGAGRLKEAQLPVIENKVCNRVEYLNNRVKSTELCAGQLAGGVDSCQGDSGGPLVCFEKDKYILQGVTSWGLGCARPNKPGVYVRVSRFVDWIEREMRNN
For experiment [2], the target named is plasminogen (purified; Molecular Innovations in the plasmin activity reactions). The experiment can be described thus: cell-based or functional assay.

Regarding “mouse PAI-1 (endogenous, in descending aorta protein of LDLR-/- ApoB48-deficient mice) (from UniProt P22777 23-402)”, the fold more plasminogen complexed with PAI-1 (rPAI-123-treated against saline-treated mice) in experiment [1] turned out to be 1.6 fold. Consider “glycosylated human PAI-1 (Molecular Innovations) (from UniProt P05121 24-402)”, for which the plasmin activity (chromozym assay); 50 nM PAI-1 pre-bound to plasminogen 1 h at 37 C before tPA was added (late) in experiment [2] amounted to 0.00138 U/ml.
